In the nanobody polyreactivity screen of Harvey et al. (2022):

Test: yeast display, Sf9 membrane polyspecificity reagent, FACS + sequencing; frameworks hold sequencing errors
How it was run: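 Galactose-induced (36–48 hours) yeast carrying a synthetic nanobody display library were exposed to 10% biotinylated, detergent-solubilized Sf9 membrane reagent at 4 °C for 1 hour. FACS followed streptavidin microbead enrichment, using low and high (top ~1%) gates for expression (anti-HA) and reagent binding (streptavidin). Colony PCR, MiSeq 2 × 250 sequencing and CDR-length filtering followed. Labels for polyreactivity reflect the gate of origin.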

Sequence | polyreactivity (PSR sort gate)
QVQLVESGGGLVQAGGSLRLSCAASGITFSVYTMGWYRPAPGKERELVAAIDSDGITNYADSVKGRFTISRDNAKNNVYLQMNSLKPEDTAVYYCAKQSGRADGVSGFDYWGQGTQVTVSS | low polyreactivity
QVQLVESGGGLVQAVGSLRLSCAASGSTFSRYAMGWYRQAPGKERELVAAISWGGNTYYADSVKGRFTISRDNAKNTVYLQMNSLKPVDTAVYYCNRYSKLYNTMDYWGQGTQVTVSS | high polyreactivity
QVQLVESGGGLVQAGGSLRLSCAASGYIFVRNAMGWSRQAPGKERELVAAISRTDGTTYYADSVKGRFTISRDNAKNTVYLQMNSLIPEDTAVYYCAADYLRAPYYQYEYWGQGTQVTVSS | low polyreactivity
QVQLVESGGGLVQAGGSLRLSCAASGSIFRYYAMGWYRQAPGKERELVAAISSNGGSTYYADSVKGRFTISRDNAKNTVYLQMNSLKPEDTAVYYCNAVKVGPYYFRSDYWGQGTQVTVSS | high polyreactivity
QVQLVESGGGLVHAGGSLRLTCAASGLTFAYYAMGWYRQAPGKERELVAAISWNGGRTYNADSVKGRFTISRDNAKNTVYLQMNSLKPEDTAVYYCAAQVTSSFYWGQGTQVTVSS | high polyreactivity
QVHLVESGGGLVHAGGSLRLSSAASGSIFGANTMGWYRQAPGKERELVAGITSGARTYYADSVKGRFTISRDNAKNTVYLQMNSLKPEDTAVYYCAAKYAWRRYGFWGQGTQVTVSS | high polyreactivity
QVQLVESGGGLVQAGGSLRLSCASSGFTFRSYAMGWYRQAPGKERELVAAIRWSGDSTYYADSVKGRFTISRDNAKNTVYLQMTSLKPEDTAVYYCAAGTYLRYGYWGQGTQVTVSS | high polyreactivity
QVQLVESGGGLVQAGGSLRLSCAASGLTFYVYTMGWYRQEPGKERELVAAITGSGGSTFYADSVKGRFTISRDNAKNTVFIQMNSLKREDTAVYYCAAYYYMSDGYDYWGQGTQVTVSS | low polyreactivity
QVQLVESGGGLVQAGGSLRLSCAASGRIFPYYAMGWYRQAPGKERELVAAISRIGGRTYYADSVKGRFTISRDNAKNTVYLQMNSLKPEDTAVYYCAAGYGGTFNCGQGTQVTVSS | high polyreactivity
QVQLVESGGGLVQAGGSLRLSCDASGRIFGRYAMGSYRPAPGNDRELVAAIPRNGGSTYADSVKGRFTISRDNAKNTVYLQMNSLKPEDTAVYYCAARNSYRYSKYDYWGQGTQVTVSS | high polyreactivity
QVQLVESGGGLVQAGGSLRLSCAASGSIFGYYAMGWYRQAPGKERELVAAIDSGGSTYYADSVKGRFTISRDNAKNTVYLQMNSLKPEDTAVYYCATDYSGLRYDYWGQGTQVTVSS | low polyreactivity
QVQLVESGGGLVQAGGSLRLSCSASGSTFWYYAMGWYRKAPGKERELVAAITRGASTNYADSVKGRFTISRDNAKNTVYLQMISLIPEDTAVYYCAAGPARWKGYYWGQGTQVTVSS | high polyreactivity
QVQLVESGGVLVQAGGSLRLSCAASGSTFYYYAMGWYRKAPGKERELVAAISSSGGTTYYADSVKGRFTISRDNAKNTVYLQMNSLKPEDTAVYYCAKYPWYWDEGNSWGQGTQVTVSS | low polyreactivity
QVQLVESGGGLVQAGGSLRLSCAASGLNFYSNAMGWYRQAPGKERELVARISTGGSTYADSVKGRFTISRDNAKNTVYLQMNSLKPEDTAVYYCAKLPPRGIDDEYWGQGSQVTVSS | low polyreactivity
QVQLVESGGGIVQAGGSLRLSCAASGRTFRGNAMGWYRQAPGKERELVAAISWSGGRTYYADSVKGRFTISRDNAKNTVYLQMNSLKPEDTAVYYCNRLTRRWYSLRSFDYWGQGTQVTVSS | high polyreactivity
HVQLQETGGGLVQAGGSLRLSCAASGSIFQATYMGWYRQAPGKEREFVASITYGSITIYADSVKGRFTIGRDNAKDTLYLQMNSLKPEDTAVYYCAVDRHYIPAFHYWGQGTQVTVSS | low polyreactivity
QVQLVESGGGLVQAGGSLRLSCAASGSIFCRYDMGWLDRRLGKKGSSLPLLLVLVTTRTTQTPVKGRFTISRDNAKNTVYLQIICLKPEDTAVYNCAADLRASGLKYEYWGQGTQVTVSS | low polyreactivity
QVQLVDSGGGLVQAGGSLRLSCAASGFTFYSYAMGWYRQAPGKERELVASITSGGSTYYADSVKGLFTISRDNGKNTVYLPMNSLNPEYTAVSYCAATRGYSQYGRVRKYGYWGLGTQVTVSS | high polyreactivity
QVQLVESGGGLVQAGGSLRLSCAASGGTFSDNAMGWYRQAPGKERELVADIDIGGITYYADSVKGRFTISRDNAKNTVYLQMNSLIPEDTAVYYCAAVTTYYYYDVTDYAYEYYYWRQGTQVTVSS | low polyreactivity
HVQLVESGGGLVQAGGSLRLSCAASGRTFPRYAMGWYRQAPGTERELVAAISVRAGITYYADSVKGRFTISRDNAKNTVYLQMNSLKPEDTAVYYCAKDLWTTSYDEGDYWGQGTQVTVSS | low polyreactivity
QVQLVESGGGLVQAGGSLRLSCAASGSTFDPYAMGWYRQAPGKERELVAAITWGGGSTYADSVKGRFTISRDNAKNTVYLQMNSLKPEDTAVYYCAAEYYLWLFEYYVEYDYWGQGTQVTVSS | high polyreactivity
QVQLVESGGGLVQSGGSLRLSCAASGRIFWYNAMRWYSQAPGKDRELVARITRGTRTYYADSVKGRFTISRDNAKNTVYLQMNSLKPEDTAVYYCRLQFSYTPHYDYWGQGTQVTVSS | high polyreactivity
